In data set [1] the test system is LTC4 synthase. The data set can be described thus: Conjugation of LTA4-ME with GSH by solubilized microsomes of COS cells transfected with wild-type or mutant LTC4 synthase. The note with it: for Function / effect on Km of GSH / Km: COS cell microsome; for conjugation function of transfected COS cell microsomes: compared to wild-type construct.
Protocol: OF THE EXPRESSED PROTEINS: COS-7 cells were transfected with either wild-type LTC4 synthase cDNA or the mutated LTC4 synthase cDNA by DEAE-dextran transfection (Lam et al., Proc. Natl. Acad. Sci. USA., 91:7663, 1994). Three days after transfection, the cells were harvested by treatment with trypsin and suspended in microsomal buffer (50 mM HEPES buffer pH 7.9 containing 2 mM EDTA and 10 mM β-mercaptoethanol) at a concentration of 5×10^6 cells/ml. The cells were lysed by sonication with a Branson microtip sonicator (Danbury, Conn.) at a setting of 7. Cell lysates were centrifuged at 100,000×g for 60 min at 4° C., and the pellets (microsomes) were resuspended in microsomal buffer and were solubilized by the addition of 0.4% Triton X-102, 0.4% sodium deoxycholate (DOC), and 10% glycerol and stirring at 4° C. for 45 min.
The function of each mutant enzyme as well as the wild-type enzyme was first screened by the incubation of 1-10 μl of solubilized COS cell microsomes with 10 mM GSH and 20 μM LTA4-ME in 200 μl 50 mM HEPES buffer containing 10 mM MgCl2, pH 7.6. The reactions were carried out at room temperature for 10 min and stopped by the addition of 3 vol methanol containing 200 ng prostaglandin B2 (PGB2) as an internal standard. LTC4-ME levels in the samples were determined with high performance liquid chromatography (HPLC).
Reverse phase (RP)-HPLC was carried out with a model 126 dual pump system and model 167 scanning UV detector (Beckman Instruments) controlled by an Gateway 2000 P4D66 computer equipped with Beckman System Gold software. Samples were applied to a 5-μm 4.6×250-mm C18 Ultrasphere reverse phase column (Beckman Instruments) equilibrated with a solvent of methanol/acetonitrile/water/acetic acid (10:15:100:0.2, v/v), pH 6.0 (solvent A). Immediately after the sample was injected, the column was eluted at a flow rate of 1 ml/min with a programmed concave gradient (System Cold curve 6) to 20% solvent A and 80% solvent B (pure methanol) over 0.2 min with continuation isocratically for 5.8 min. Beginning at 6 min, solvent B was increased linearly to 100% over 0.2 min and was maintained at this level for 7 min more. The ultraviolet absorbance at 280 nm and the ultraviolet spectra were recorded simultaneously. The retention times for PGB2 and LTC4-ME were 7.4 and 8.9 min, respectively. LTC4-ME was quantitated by calculating the ratio of the peak area to the area of the internal standard PGB2.
Data set [2] relates to LTC4 synthase. Put plainly: Enzyme kinetics of purified recombinant wild-type or mutant LTC4 synthase. The format is biochemical, human. The settings on record: purified recombinant enzyme. The method, then: PURIFICATION AND KINETIC ANALYSIS OF SELECTED EXPRESSED PROTEINS: Recombinant LTC4 synthases were purified by S-hexyl GSH agarose affinity chromatography (Lam et al., Eur. J. Biochem., 238:606, 1996). Solubilized microsomes were loaded onto a 2.5-cm×1.5-cm open bed of S-hexyl GSH resin equilibrated with 50 mM HEPES, 1 mM EDTA, 5 mM β-mercaptoethanol, 0.1% Triton X-102, 10% glycerol, pH 7.6 (Buffer A) at 4° C. The column was washed sequentially with 5 volumes each of buffer A/0.3 M NaCl/20 mM GSH/0.1% DOC, buffer A/2.5 mM S-hexyl GSH/2.5 mM S-octyl GSH/0.1% DOC, and buffer A/0.1% DOC; and the enzyme was eluted with 5 fractions of 1 volume each of 15 mM probenecid in buffer A containing 0.1% DOC. The enzyme was purified nearly to homogeneity as determined by the presence in silver stained SDS-PAGE gels of a predominant 18-kDa protein band with a minor 34-kDa band; only the 18-kDa band interacted with anti-LTC4 synthase antibody on immunoblot analysis. After sequential concentration and dilution with a Microsep 10K centrifugal concentrator (Filtron Technology Corp., Northborough, Mass.) to remove probenecid, the protein concentration was estimated by staining a SDS-PAGE gel of the purified enzyme and a standard amount of lysozyme resolved in the same gel with Coomassie blue dye and comparing their intensities.
To examine the enzyme kinetics of recombinant wild-type or mutant LTC4 synthase, 3-100 ng portions of purified enzyme were incubated in 200 μl of HEPES buffer, pH 7.6, containing 10 mM MgC'2 with either 20 μM LTA4-ME and various concentration of GSH or with 10 mM GSH and various concentrations of LTA4-ME for 2 min at room temperature. The reactions were terminated by the addition of 3 vol of methanol containing 200 ng PGB2. Samples were then analyzed for LTC4-ME by RP-HPLC.

Entries after “also recorded” stand apart in the source; their conditions may differ.

For orientation: Km means the substrate concentration at which the rate is half of its maximum.

On to A52S: LTC4 synthase point mutant, for which, in data set [1], the Function is given as 80 % of WT and the “effect on Km of GSH” value is “did exhibit an increase in Km for GSH”. For the same molecule, the Km in data set [1] (read-out: Km GSH) amounted to 30000 µM. In addition, the Km in data set [1] (read-out: Km LTA4-ME) was 4.5 µM.
With C56S: LTC4 synthase point mutant, the figures for the “conjugation function of transfected COS cell microsomes” value (“conjugation function” for short) in data set [1] and in data set [1] (listed as C56 to S56) were “do not affect conjugation function” and “None of the mutations affected conjugation function”, respectively.
For the molecule C82V: LTC4 synthase point mutant, the “Vmax LTC4-ME” value in data set [2] worked out at 37.7 µmol/min/mg. The Michaelis constant (Km) in data set [2] (read-out: Km GSH) is 900 µM; in data set [2] (read-out: Km LTA4-ME), 6.3 µM; in data set [1] (read-out: Km GSH), 2000 µM; in data set [1] (read-out: Km LTA4-ME), 10.9 µM. Besides, in data set [1], the Function was 100 % of WT. The “conjugation function” value in data set [1] is reported as “do not affect conjugation function”; in data set [1] (listed as C82 to V82) it was “None of the mutations affected conjugation function”.
On to E45Q: LTC4 synthase point mutant, for which, in data set [1], the “conjugation function” value is recorded as “did not attenuate the conjugation function; also recorded: did not affect the function”.
Still for that read-out and setting: the result for E47Q: LTC4 synthase point mutant reads “did not attenuate the conjugation function; also recorded: did not affect the function”.
On the same count and under the same terms, the result for E58Q: LTC4 synthase point mutant reads “did not attenuate the conjugation function”.
As to E76Q: LTC4 synthase point mutant, the “conjugation function” value in data set [1] is “did not affect the function”.
As for F46Y: LTC4 synthase point mutant, the “conjugation function” value in data set [1] is on record as “did not affect the function”.
On the same count and under the same terms, to F60Y: LTC4 synthase point mutant belongs “did not affect the function”; to H75Q: LTC4 synthase point mutant, “did not affect the function”; to L39F: LTC4 synthase point mutant, “did not affect the function”.
On to L62T: LTC4 synthase point mutant, for which the Function in data set [1] is recorded as 100 % of WT. In addition, in data set [1], the “conjugation function” value was “did not affect the function”. The values for the Km in data set [1] (read-out: Km GSH) and in data set [1] (read-out: Km LTA4-ME) were 2500 µM and 6.7 µM, respectively.
On to “N55A: LTC4 synthase point mutant of the consensus N-glycosylation site”, for which, in data set [1], the Function is recorded as 85 % of WT. The “effect on Km of GSH” value in data set [1] is recorded as “increase the Km of GSH”. Further, the Km in data set [1] (read-out: Km GSH) stood at 10700 µM; in data set [1] (read-out: Km LTA4-ME) it was 7.7 µM.
As for Q53N: LTC4 synthase point mutant, the “conjugation function” value in data set [1] was “did not affect the function”.
On the same count and under the same terms, to R48S: LTC4 synthase point mutant belongs “did not attenuate the conjugation function; also recorded: did not affect the function”.
As to R51H, the “Vmax LTC4-ME” value in data set [2] was determined as 20.0 µmol/min/mg. Also, the Km in data set [2] (read-out: Km GSH) came out at 1500 µM; in data set [2] (read-out: Km LTA4-ME), 6.3 µM; in data set [1] (read-out: Km GSH) it was 3800 µM; in data set [1] (read-out: Km LTA4-ME) it was 6.4 µM. Besides, in data set [1], the Function is recorded as 100 % of WT. Besides, in data set [1], the “conjugation function” value is recorded as “activity was not diminished”.
In the case of R51I: LTC4 synthase point mutant, the results for the “conjugation function” value in data set [1] and in data set [1] (listed as Arg 51 to isoleucine) were “do not show conjugation activity” and “abolished the functional activity”, respectively.
Take R51K: LTC4 synthase point mutant: in data set [1], the Function is listed as 100 % of WT and the “conjugation function” value is “activity was not diminished”. The Km in data set [1] (read-out: Km GSH) stood at 2300 µM. For the same molecule, the Km in data set [1] (read-out: Km LTA4-ME) came out at 9.4 µM.
Take R92S: LTC4 synthase point mutant: in data set [1], the “conjugation function” value is “did not affect the function”.
Turning to R99S: LTC4 synthase point mutant, the “conjugation function” value in data set [1] was “did not affect the function”.
Turning to R104S: LTC4 synthase point mutant, the “conjugation function” value in data set [1] is listed as “did not affect the function”.
For the molecule S100V: LTC4 synthase point mutant, in data set [1], the “conjugation function” value was “did not affect the function”.
The same measure, in the same setting: to S111V: LTC4 synthase point mutant belongs “did not affect the function”.
With T66V: LTC4 synthase point mutant, in data set [1], the “conjugation function” value is “did not affect the function”.
V49F: LTC4 synthase point mutant: the Function in data set [1] is recorded as 100 % of WT. The Michaelis constant (Km) in data set [1] (read-out: Km GSH) turned out to be 9200 µM; in data set [1] (read-out: Km LTA4-ME), 10 µM.
Consider V54Q: LTC4 synthase point mutant, for which, in data set [1], the “conjugation function” value is on record as “did not affect the function”.
Still for that read-out and setting: to V69S: LTC4 synthase point mutant belongs “did not affect the function”.
For the molecule V69T: LTC4 synthase point mutant, in data set [1], the Function is listed as 100 % of WT. The Michaelis constant (Km) came out at 2000 µM in data set [1] (read-out: Km GSH) and 19 µM in data set [1] (read-out: Km LTA4-ME).
With “WT: recombinant wild-type human LTC4 synthase (SEQ ID NO.:2)”, the “Vmax LTC4-ME” value in data set [2] is 51.3 µmol/min/mg. For the same molecule, the Michaelis-Menten constant (Km) in data set [2] (read-out: Km GSH) is 1400 µM; in data set [2] (read-out: Km LTA4-ME) it was 7.4 µM; in data set [1] (read-out: Km GSH), 500 to 2000 µM; in data set [1] (read-out: Km LTA4-ME) it was 6 to 20 µM. Also, in data set [1], the Function is recorded as 100 % of WT.
On to Y50F: LTC4 synthase point mutant, for which the “conjugation function” value in data set [1] was “did not affect the function”.
As to Y59F: LTC4 synthase point mutant, the Function in data set [1] is listed as 100 % of WT. Besides, the Km worked out at 15500 µM in data set [1] (read-out: Km GSH) and 19 µM in data set [1] (read-out: Km LTA4-ME).
Take Y97F: LTC4 synthase point mutant: the Function in data set [1] is on record as 100 % of WT. Moreover, the figures for the Km in data set [1] (read-out: Km GSH) and in data set [1] (read-out: Km LTA4-ME) were 16500 µM and 16.5 µM, respectively.
As to Y109I: LTC4 synthase point mutant, in data set [1], the Function is 100 % of WT and the “conjugation function” value is listed as “did not affect the function”. Also, in data set [1] (read-out: Km GSH), the Michaelis constant (Km) came out at 1600 µM. Besides, the Michaelis constant (Km) in data set [1] (read-out: Km LTA4-ME) turned out to be 20 µM.

B1: deletion of the charged amino acids K2 and D3 at the amino terminus: LTC4 synthase deletion mutant (protein, UniProt Q16873 1-150, looked up, variant K2* D3*)
Leukotriene C4 synthase: MEVALLAAVTLLGVLLQAYFSLQVISARRAFRVSPPLTTGPPEFERVYRAQVNCSEYFPLFLATLWVAGIFFHEGAAALCGLVYLFARLRYFQGYARSAQLRLAPLYASARALWLLVALAALGLLAHFLPAALRAALLGRLRTLLPWA
For the molecule B1, the “conjugation function” value in data set [1] was “Neither the deletion of the charged amino acids K2 and D3 at the amino terminus nor the deletion of the 14 amino acids at the carboxyl terminus altered the function”.

B2: Q25K: LTC4 synthase point mutant (protein, UniProt Q16873 1-150, looked up, variant Q25K)
Leukotriene C4 synthase: MKDEVALLAAVTLLGVLLQAYFSLKVISARRAFRVSPPLTTGPPEFERVYRAQVNCSEYFPLFLATLWVAGIFFHEGAAALCGLVYLFARLRYFQGYARSAQLRLAPLYASARALWLLVALAALGLLAHFLPAALRAALLGRLRTLLPWA
In the case of B2, in data set [1], the “conjugation function” value is “did not affect the function”.

B3: R51I/WT: recombinant pseudo-heterodimer of R51I LTC4 synthase monomer and wild-type monomer (protein, UniProt Q16873 1-150, looked up, variant R51I)
Leukotriene C4 synthase: MKDEVALLAAVTLLGVLLQAYFSLQVISARRAFRVSPPLTTGPPEFERVYIAQVNCSEYFPLFLATLWVAGIFFHEGAAALCGLVYLFARLRYFQGYARSAQLRLAPLYASARALWLLVALAALGLLAHFLPAALRAALLGRLRTLLPWA
modifications: heterodimer with wild-type monomer
Take B3: in data set [1], the Function is given as 90 % of WT and the “conjugation function” value was “retained enzymatic function”. In data set [1] (read-out: Km GSH), the Km came out at 3200 µM. In addition, the Michaelis constant (Km) in data set [1] (read-out: Km LTA4-ME) was 6.5 µM.
